These results are taken from the supplement of paper PMC9170038.

The test system of the series is MS2 coat protein. Briefly: apparent KD of MS2 coat protein; designed switch direction (-1 OFF switch, 1 ON switch): 1; higher = weaker reporter binding. The procedure, abridged: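 Designed RNA switches with common flanks were made on Illumina chips by stalled E. coli RNA polymerase. Titration with SNAP-549-labelled MS2 coat protein doubled from 0.7 or 1.5 nM up to 3 µM. Apparent KD is each design's median over clusters after curve-fitting normalised fluorescence.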

[1] abbreviates: input ligand: microRNA oligo, concentration not stated.
[2] abbreviates: Eterna round: R95, input ligand: FMN 200 uM.
Where [3] appears, read: Eterna round: R95, input ligand: microRNA oligo, concentration not stated.
Where [4] appears, read: Eterna round: R95, input ligand: none.

As for “AGCUAUUACGAAGGAUAUUGUGACAUGAGGAUCACCCAUGUUUUCAUGAUUAAUUGUGAUCACGUCGAGAAGGUUGUACUAACA [SameState NG2 #30] (Eterna round: R96, puzzle: Same State NG 2)”, under setting [1], the “apparent KD of MS2 coat protein” value stood at 43 nM.
As for “AGCUUACAUGAGGAUCACCCAUGUAGGAAGUACAUAGGAUAUCACCAAAUGGUCGACAUGUGAGAAGGGUGGAAGU [Usarle] (puzzle: Same State 1)”, the “apparent KD of MS2 coat protein” value under setting [2] stood at 16.2 nM, the “apparent KD of MS2 coat protein” value under setting [3] worked out at 19.4 nM and the “apparent KD of MS2 coat protein” value under setting [4] worked out at 13.5 nM.
In the case of “AGCUUUUAAUUAGGAUAUGGUCACAUGAGGAUCACCCAUGUAACGAUGAUACGAUGUGGUCAAGACUAGAAGGGAUCGCUAACA [SameState NG2 #70] (Eterna round: R96, puzzle: Same State NG 2)”, the “apparent KD of MS2 coat protein” value came to 150 nM (input ligand: FMN 200 uM), 82.9 nM under setting [1] and 113 nM (input ligand: none).
Consider “AGGAAGGAGACUGAGGAUAUCGUUGAGAGGACAUGAGGAUCACCCAUGUGUAUAGGAUUGGAGAACGAGAAGGCAGAGGAGUGGA [JR_SS2_Sub046] (puzzle: Same State 2)”, for which the “apparent KD of MS2 coat protein” value came out at 50 nM under setting [2], 48.5 nM under setting [3] and 72.4 nM under setting [4].
The corresponding values for “AGGCAAGCUUUUUGCUUGUAUGCAGGAGAACAUGAGGAUCACCCAUGUCUUGGAGGUGUUGAAAAUAAGAGAAUGCA [JR_SHM208A_Sub006] (puzzle: Sensor for hsa-mir-208a)” are 63.9 nM, 72.8 nM and 93.9 nM.
Regarding “AGGCCACCGGGAGGAUAUGGCACCUAUAUGGUGCCAGAAGGCUCAACAUGAGGAUCACCCAUGUGGGUGGGUUCUAAUGAACAA [Fiskers NG1 - 1] (Eterna round: R96, puzzle: Same State NG 1)”, the “apparent KD of MS2 coat protein” value reads like this: (input ligand: FMN 200 uM) 69.1 nM; under setting [1], 41.7 nM; (input ligand: none) 46.7 nM.
“AGGCUCAGAGCAGGAUAUAUGCGAUCACAUGAGGAUCACCCAUGUCUCGAGCUUCGGCUCGAGGCAUAGAAGGGCUCUGAGCCA [SSNG2/4-B1] (Eterna round: R96, puzzle: Same State NG 2)”: the “apparent KD of MS2 coat protein” value turned out to be 18.9 nM (input ligand: FMN 200 uM), 28.6 nM under setting [1] and 51.8 nM (input ligand: none).
The corresponding values for “AGGGAGGAAGCUGAGGAUAUCGUAAGGAGGACAUGAGGAUCACCCAUGUGUGUGGAAUUGGAGGACGAGAAGGCAGAGGAGUGGG [JR_SS2_Sub054] (Eterna round: R96, puzzle: Same State 2)” are 40.5 nM, 35 nM and 38.4 nM.
As for “AGGGAGGAAGCUGAGGAUAUCGUAAGGAGGACAUGAGGAUCACCCAUGUGUGUGGAAUUGGAGGACGAGAAGGCAGAGGAGUGGG [JR_SS2_Sub054] (puzzle: Same State 2)”, the “apparent KD of MS2 coat protein” value runs as follows: under setting [2], 32.9 nM; under setting [3], 27.1 nM; under setting [4], 28.9 nM.
The corresponding values for “AGGUAACAUGAGGAUCACCCAUGUAAGGUGAACGUAGGAUAUCGAGGAGGUAGAGUAGGUCGAGAAGGACGAGAAG [JR_SS1_Sub094] (puzzle: Same State 1)” are 139 nM, 100 nM and 127 nM.
Take “AGGUAACAUGAGGAUCACCCAUGUACCAAUAAUGCAGGAUAUCGACACGAAAAUACGUGUCGAGAAGGGCAUGAAA [SS1 MT 22] (Eterna round: R96, puzzle: Same State 1)”: the “apparent KD of MS2 coat protein” value was found to be 10.3 nM (input ligand: FMN 200 uM), 9.09 nM under setting [1] and 12.5 nM (input ligand: none).
Turning to “AGGUACAACGGAGGAUAUAAUAGUCUAUAGACGUUAGAAGGCCGGGCCUUCACAUGAGGAUCACCCAUGUCUCUGGAGGCGCCU [Eternabot solution 11] (Eterna round: R96, puzzle: Same State NG 1)”, under setting [1], the “apparent KD of MS2 coat protein” value is 16.8 nM.
As for “AGUAGUGUAACAUGAGGAUCACCCAUGUAUGUAUAUGUAACCUAGGAUAUGGAGGUUAUGUUUGACCAGAAGGAGGAUUGUUUA [JR_SSNG3_Sub042] (Eterna round: R96, puzzle: Same State NG 3)”, the “apparent KD of MS2 coat protein” value is, setting by setting: (input ligand: FMN 200 uM) 29.7 nM; under setting [1], 28.7 nM; (input ligand: none) 33.7 nM.
The corresponding values for “AGUAGUUUAACAUGAGGAUCACCCAUGUAUCUAUCUGUAACCUAGGAUAUGGGCGUUGUAUUUAACCAGAAGGAGGAUCGUUUA [JR_SSNG3_Sub047] (Eterna round: R96, puzzle: Same State NG 3)” are 17.8 nM, 22.5 nM and 29 nM.
The corresponding values for “AGUAGUUUAACAUGAGGAUCACCCAUGUAUGUAUAUGUAACCUAGGAUAUGGAGGUUUUAUUUAACCAGAAGGAGGAUUGUUUA [JR_SSNG3_Sub043] (Eterna round: R96, puzzle: Same State NG 3)” are 18.3 nM, 15.8 nM and 20.7 nM.
For the sequence “AGUAUACAUGAGGAUCACCCAUGUCAACGUAGUCGAGGAUAUGGGCAGCCGUGAGGCGUACUAGAAGGCGAAGAGA [Mat - Same State 1 - Mod of JL - D7] (puzzle: Same State 1)”, the “apparent KD of MS2 coat protein” value is 48.9 nM under setting [2], 135 nM under setting [3] and 101 nM under setting [4].
On to “AGUCCACGCUGACGUGGACAAAAGCAUGUACAUGAGGAUCACCCAUGUCAUGUACAAGCUUUUUGCUCGUCUUAAAA [Mat - hsa-mir-208a - Mod of JL - D17] (Eterna round: R96, puzzle: Sensor for hsa-mir-208a)”, for which the “apparent KD of MS2 coat protein” value by setting is: (input ligand: FMN 200 uM) 346 nM; under setting [1], 13.2 nM; (input ligand: none) 447 nM.
For the sequence “AGUCCACGCUGACGUGGACAAAAGCAUGUACAUGAGGAUCACCCAUGUCAUGUACAAGCUUUUUGCUCGUCUUAAAA [Mat - hsa-mir-208a - Mod of JL - D17] (puzzle: Sensor for hsa-mir-208a)”, the “apparent KD of MS2 coat protein” value runs as follows: under setting [2], 543 nM; under setting [3], 14.7 nM; under setting [4], 1680 nM.
“AGUCCACGCUGACGUGGACAAAAGCAUGUACAUGAGGAUCACCCAUGUCAUGUACAAGCUUUUUGCUCGUCUUAAUA [Mat - hsa-mir-208a - Mod of JL - D43] (puzzle: Sensor for hsa-mir-208a)”: the “apparent KD of MS2 coat protein” value was 478 nM under setting [2], 14.9 nM under setting [3] and 549 nM under setting [4].
The corresponding values for “AGUCCAGCCAGAGCUGGACAAAAGCAUGUACAUGAGGAUCACCCAUGUUCAUGUACAAGCUUUUUGCUCGUCUUAAG [Mat - hsa-mir-208a - Mod of JL - 64] (puzzle: Sensor for hsa-mir-208a)” are 583 nM, 15.9 nM and 547 nM.
The corresponding values for “AGUCCAGCCUGAGCUGGACAAAAGCAUGUACAUGAGGAUCACCCAUGUCAUGUACAAGCUUAUUGCUCGUCUUAAUA [Mat - hsa-mir-208a - Mod of JL - D40] (puzzle: Sensor for hsa-mir-208a)” are 226 nM, 16.7 nM and 251 nM.
